Results reported in patent US20250101120A1 (BEIJING SOLOBIO GENETECHNOLOGY, published 2025).
Substitutions are numbered along the chain they refer to. Read-outs that look alike come from different tables or passages of the source. Values belong to the molecule of their own block, whether it stands above or below them.

Tests used:
[1] = target: hFc-hFasL (fusion protein of human Fc fragment and human FasL extracellular region) (human) (UniProt P48023); assay: cell-based or functional assay
[2] = target: hFc-hFasL (fusion protein of human Fc fragment and human FasL extracellular region) (human) (UniProt P48023); assay: ELISA, hFc-hFasL coated, sample titrated (detection for this reference not separately stated)
[3] = target: T1, hFc-hFasL (fusion protein of human Fc fragment and human FasL extracellular region) (human, UniProt P48023 134-281); assay: cell-based or functional assay
T1 sequence: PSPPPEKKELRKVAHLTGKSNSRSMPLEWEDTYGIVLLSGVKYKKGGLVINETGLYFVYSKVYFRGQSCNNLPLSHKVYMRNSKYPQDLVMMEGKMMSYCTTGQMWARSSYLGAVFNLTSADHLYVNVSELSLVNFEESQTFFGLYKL

[4] = target: T1, hFc-hFasL (fusion protein of human Fc …); assay: cell-based or functional assay; remark: listed apart in the source
[5] = target: T1, hFc-hFasL (fusion protein of human Fc …); assay: cell-based or functional assay; remark: listed apart in the source
[6] = target: T1, hFc-hFasL (fusion protein of human Fc …); assay: ELISA, hFc-hFasL coated, antibody titrated, anti-human kappa-HRP
[7] = target: T1, hFc-hFasL (fusion protein of human Fc …); assay: cell-based or functional assay; remark: listed apart in the source
[8] = target: T1, hFc-hFasL (fusion protein of human Fc …); assay: cell-based or functional assay; remark: listed apart in the source
[9] = target: T1, hFc-hFasL (fusion protein of human Fc …); assay: ELISA, hFc-hFasL coated, antibody titrated, anti-human kappa-HRP (protocol of Example 3.2)
[10] = target: T1, hFc-hFasL (fusion protein of human Fc …); assay: cell-based or functional assay; remark: listed apart in the source

HepG2 IC50(nM), FasL antigen-induced cell apoptosis [1]: 0.074 nM
IC50(nM), FasL antigen-induced apoptosis of HepG2 cells (CellTiter-Glo ATP) [1]: 0.099 nM
Jurkat IC50(nM), FasL antigen-induced cell apoptosis [1]: 0.046 nM
EC50 [2]: 0.948 nM
Molecule: MAB126-100 (commercial anti-FasL antibody, RD)

EC50(nM), FasL antigen-induced NF-κB signaling pathway activation (SEAP, HepG2-Dual) [3]: 1.13 nM
IC50(nM), FasL antigen-induced apoptosis of Jurkat cells (CellTiter-Glo ATP) [4]: 0.109 nM
IC50(nM), FasL antigen-induced apoptosis of HepG2 cells (CellTiter-Glo ATP) [5]: 0.03 nM
EC50 [6]: 0.186 nM
B1: FL-M05 (antibody, V domains shown)
VH: EVQLQQSGAELVRPGVSVKISCKGSGYTFTDYTMHWVKQSHAKSLEWIGVISTYQGDARYNQKFKGKATMTVDKSSSTAYMELARLTSEDSAIYYCARFPDWDYAMDYWGQGTSVTVSS
VL: DIVLTQSPASLAVSLGQRATISCKASQSVDYDGDSYMNWYQQKPGQPPKLLIYAASNLESGIPARFSGSGSGTDFTLNIHPVEEEDAATYYCQHSRELPYTFGGGTKLEIK
notes: Chimeric full-length antibody, tested as human IgG4 / human kappa

EC50(nM), FasL antigen-induced NF-κB signaling pathway activation (SEAP, HepG2-Dual) [3]: 0.704 nM
IC50(nM), FasL antigen-induced apoptosis of Jurkat cells (CellTiter-Glo ATP) [4]: 0.035 nM
IC50(nM), FasL antigen-induced apoptosis of HepG2 cells (CellTiter-Glo ATP) [5]: 0.016 nM
EC50 [6]: 0.157 nM
B2: FL-M08 (antibody, V domains shown)
VH: B1 VH with E1Q, V2I, Q5L, T33A, R59N
VL: B1 VL with D1E
notes: as for B1

EC50(nM), FasL antigen-induced NF-κB signaling pathway activation (SEAP, HepG2-Dual) [3]: 1.33 nM
IC50(nM), FasL antigen-induced apoptosis of Jurkat cells (CellTiter-Glo ATP) [4]: 0.023 nM
IC50(nM), FasL antigen-induced apoptosis of HepG2 cells (CellTiter-Glo ATP) [5]: 0.021 nM
EC50 [6]: 0.441 nM
B3: FL-M89 (antibody, V domains shown)
VH: B1 VH with M34I, R59S
VL: B1 VL with L4M, H94Q
notes: as for B1

HepG2 IC50(nM), FasL antigen-induced cell apoptosis [7]: 0.029 nM
Jurkat IC50(nM), FasL antigen-induced cell apoptosis [7]: 0.028 nM
B4: humFL-M54-13 (antibody, human IgG4, V domains shown)
VH: QVQLVQSGAEVKKPGSSVKVSCKASGYTFTRFDISWVRQAPGQGLEWMGWIFPGDGSSQYNENFKGRATITTDKSTSTAYMELSSLRSEDTAVYFCARSLISTAMFDHWGQGTLVTVSS
VL: EIVMTQSPATLSVSPGERATLSCRASKSVSTSDFSYIHWYQQKPGQAPRLLIYLASHLESGIPARFSGSGSGTEFTLTISSLQSEDFAVYYCQHSRELPRTFGQGTKVEIK

EC50(nM), FasL antigen-induced NF-κB signaling pathway activation (SEAP, HepG2-Dual) [3]: 1.97 nM
IC50(nM), FasL antigen-induced apoptosis of Jurkat cells (CellTiter-Glo ATP) [4]: 0.018 nM
IC50(nM), FasL antigen-induced apoptosis of HepG2 cells (CellTiter-Glo ATP) [5]: 0.018 nM
EC50 [6]: 0.725 nM
HepG2 IC50(nM), FasL antigen-induced cell apoptosis [7]: 0.023 nM
Jurkat IC50(nM), FasL antigen-induced cell apoptosis [7]: 0.023 nM
B5: FL-M54 (antibody, V domains shown)
VH: EVQLQQSGVELVKPGASVKLSCKASGYTFTRFDISWVRQRPEQGLEWIGWIFPGDGSSQYNENFKGKATLTTDKSSGTAYMQLNRLTSEDSAVYFCARSLISTAMFDHWGQGTTLTVSS
VL: DIVMTQSPASLAVSLGQRATISCRASKSVSTSDFSYIHWYQQKPGQPPKLLIFLASHLESGVPARFSGSGSGTDFTLNIHPVEEEDAATYYCQHSRELPRTFGGGTKLEIK
notes: as for B1

EC50(nM), FasL antigen-induced NF-κB signaling pathway activation (SEAP, HepG2-Dual) [3]: 2.73 nM
IC50(nM), FasL antigen-induced apoptosis of Jurkat cells (CellTiter-Glo ATP) [4]: 0.02 nM
IC50(nM), FasL antigen-induced apoptosis of HepG2 cells (CellTiter-Glo ATP) [5]: 0.02 nM
EC50 [6]: 0.661 nM
B6: FL-M56 (antibody, V domains shown)
VH: B5 VH with V9P, S58T
VL: B5 VL with M4L, Q46L
notes: as for B1

EC50(nM), FasL antigen-induced NF-κB signaling pathway activation (SEAP, HepG2-Dual) [3]: 3.01 nM
IC50(nM), FasL antigen-induced apoptosis of Jurkat cells (CellTiter-Glo ATP) [4]: 0.023 nM
IC50(nM), FasL antigen-induced apoptosis of HepG2 cells (CellTiter-Glo ATP) [5]: 0.016 nM
EC50 [6]: 0.811 nM
B7: FL-M78 (antibody, V domains shown)
VH: DVQLQESGGGLVQPGGSRKLSCAASGFTFSSYDMSWVRQTPEKRLEWVAFISSGGGSTYYPDTVKGRFTISRDNAKNTLYLQMSSLKSEDSAMYYCGRHYDNYLYAMDYWGQGTSVTVSS
VL: DIVMTQSPASQSASLGESVTITCLASQTIGTWLAWYQQKPGKSPQLLIYAATSLADGVPSRFSGSGSGTKFSFKISSLQAEDFVSYYCQQLYSTPFTFGGGTKLEIK
notes: as for B1

HepG2 IC50(nM), FasL antigen-induced cell apoptosis [8]: 0.0333 nM
Jurkat IC50(nM), FasL antigen-induced cell apoptosis [8]: 0.0294 nM
EC50 [9]: 0.288 nM
B8: humFL-M88-4 (antibody, human IgG4, V domains shown)
VH: QVQLVQSGAEVKKPGASVKVSCKGSGYTFTDYTIHWVRQAPGQGLEWMGVISTYQGDASYNQKFKGRVTMTVDKSTSTAYMELSSLRSEDTAVYYCARFPDWDYAMDYWGQGTLVTVSS
VL: EIVMTQSPATLSVSPGERATLSCKASQSVDYDGDSYMNWYQQKPGQPPRLLIYAASNLESGIPARFSGSGSGTEFTLTISSLQSEDFAVYYCQHSRELPYTFGQGTKLEIK
notes: Humanized FL-M88

HepG2 IC50(nM), FasL antigen-induced cell apoptosis [8]: 0.0204 nM
EC50 [9]: 0.235 nM
B9: humFL-M88-6 (antibody, human IgG4, V domains shown)
VH: B8 VH with G24A, K74T, A79V
VL: B8 VL
notes: Humanized FL-M88

EC50 [9]: 0.329 nM
B10: humFL-M88-17 (antibody, human IgG4, V domains shown)
VH: B8 VH with A79V
VL: B8 VL with H94Q
notes: Humanized FL-M88

Jurkat IC50(nM), FasL antigen-induced cell apoptosis [8]: 0.0234 nM
EC50 [9]: 0.276 nM
B11: humFL-M88-12 (antibody, human IgG4, V domains shown)
VH: B8 VH with G24A, K74T, A79V
VL: B8 VL with P47A
notes: Humanized FL-M88

EC50 [9]: 0.343 nM
B12: humFL-M88-11 (antibody, human IgG4, V domains shown)
VH: B8 VH with A79V
VL: B8 VL with P47A
notes: Humanized FL-M88

Jurkat IC50(nM), FasL antigen-induced cell apoptosis [8]: 0.0325 nM
EC50 [9]: 0.272 nM
B13: humFL-M88-18 (antibody, human IgG4, V domains shown)
VH: B8 VH with G24A, K74T, A79V
VL: B8 VL with H94Q
notes: Humanized FL-M88

HepG2 IC50(nM), FasL antigen-induced cell apoptosis [8]: 0.0126 nM
Jurkat IC50(nM), FasL antigen-induced cell apoptosis [8]: 0.0243 nM
EC50(nM), FasL antigen-induced NF-κB signaling pathway activation [10]: 0.698 nM
EC50 [9]: 0.302 nM
B14: humFL-M88-13 (antibody, human IgG4, V domains shown)
VH: B8 VH with M48I, V68A
VL: B8 VL with H94Q
notes: Humanized FL-M88

HepG2 IC50(nM), FasL antigen-induced cell apoptosis [8]: 0.0274 nM
EC50 [9]: 0.34 nM
B15: humFL-M88-7 (antibody, human IgG4, V domains shown)
VH: B8 VH with M48I, V68A
VL: B8 VL with P47A
notes: Humanized FL-M88

HepG2 IC50(nM), FasL antigen-induced cell apoptosis [8]: 0.0222 nM
Jurkat IC50(nM), FasL antigen-induced cell apoptosis [8]: 0.0186 nM
EC50 [9]: 0.23 nM
B16: humFL-M88-5 (antibody, human IgG4, V domains shown)
VH: B8 VH with A79V
VL: B8 VL
notes: Humanized FL-M88

HepG2 IC50(nM), FasL antigen-induced cell apoptosis [8]: 0.0125 nM
Jurkat IC50(nM), FasL antigen-induced cell apoptosis [8]: 0.0193 nM
EC50(nM), FasL antigen-induced NF-κB signaling pathway activation [10]: 0.454 nM
EC50 [9]: 0.265 nM
B17: humFL-M88-1 (antibody, human IgG4, V domains shown)
VH: B8 VH with M48I, V68A
VL: B8 VL
notes: Humanized FL-M88

HepG2 IC50(nM), FasL antigen-induced cell apoptosis [8]: 0.0143 nM
Jurkat IC50(nM), FasL antigen-induced cell apoptosis [8]: 0.0149 nM
EC50(nM), FasL antigen-induced NF-κB signaling pathway activation [10]: 0.47 nM
EC50 [9]: 0.301 nM
B18: humFL-M88-15 (antibody, human IgG4, V domains shown)
VH: B8 VH with V68A
VL: B8 VL with H94Q
notes: Humanized FL-M88

HepG2 IC50(nM), FasL antigen-induced cell apoptosis [8]: 0.0276 nM
Jurkat IC50(nM), FasL antigen-induced cell apoptosis [8]: 0.0192 nM
EC50(nM), FasL antigen-induced NF-κB signaling pathway activation [10]: 0.444 nM
EC50 [9]: 0.273 nM
B19: humFL-M88-3 (antibody, human IgG4, V domains shown)
VH: B8 VH with V68A
VL: B8 VL
notes: Humanized FL-M88

HepG2 IC50(nM), FasL antigen-induced cell apoptosis [8]: 0.0225 nM
Jurkat IC50(nM), FasL antigen-induced cell apoptosis [8]: 0.022 nM
EC50 [9]: 0.284 nM
B20: humFL-M88-9 (antibody, human IgG4, V domains shown)
VH: B8 VH with V68A
VL: B8 VL with P47A
notes: Humanized FL-M88
